Assay results published in US20150071907A1 (published 2015).

Target: T1, human macrophage mannose receptor (MMR) (human, UniProt P22897 19-1456)
T1 sequence (looked up): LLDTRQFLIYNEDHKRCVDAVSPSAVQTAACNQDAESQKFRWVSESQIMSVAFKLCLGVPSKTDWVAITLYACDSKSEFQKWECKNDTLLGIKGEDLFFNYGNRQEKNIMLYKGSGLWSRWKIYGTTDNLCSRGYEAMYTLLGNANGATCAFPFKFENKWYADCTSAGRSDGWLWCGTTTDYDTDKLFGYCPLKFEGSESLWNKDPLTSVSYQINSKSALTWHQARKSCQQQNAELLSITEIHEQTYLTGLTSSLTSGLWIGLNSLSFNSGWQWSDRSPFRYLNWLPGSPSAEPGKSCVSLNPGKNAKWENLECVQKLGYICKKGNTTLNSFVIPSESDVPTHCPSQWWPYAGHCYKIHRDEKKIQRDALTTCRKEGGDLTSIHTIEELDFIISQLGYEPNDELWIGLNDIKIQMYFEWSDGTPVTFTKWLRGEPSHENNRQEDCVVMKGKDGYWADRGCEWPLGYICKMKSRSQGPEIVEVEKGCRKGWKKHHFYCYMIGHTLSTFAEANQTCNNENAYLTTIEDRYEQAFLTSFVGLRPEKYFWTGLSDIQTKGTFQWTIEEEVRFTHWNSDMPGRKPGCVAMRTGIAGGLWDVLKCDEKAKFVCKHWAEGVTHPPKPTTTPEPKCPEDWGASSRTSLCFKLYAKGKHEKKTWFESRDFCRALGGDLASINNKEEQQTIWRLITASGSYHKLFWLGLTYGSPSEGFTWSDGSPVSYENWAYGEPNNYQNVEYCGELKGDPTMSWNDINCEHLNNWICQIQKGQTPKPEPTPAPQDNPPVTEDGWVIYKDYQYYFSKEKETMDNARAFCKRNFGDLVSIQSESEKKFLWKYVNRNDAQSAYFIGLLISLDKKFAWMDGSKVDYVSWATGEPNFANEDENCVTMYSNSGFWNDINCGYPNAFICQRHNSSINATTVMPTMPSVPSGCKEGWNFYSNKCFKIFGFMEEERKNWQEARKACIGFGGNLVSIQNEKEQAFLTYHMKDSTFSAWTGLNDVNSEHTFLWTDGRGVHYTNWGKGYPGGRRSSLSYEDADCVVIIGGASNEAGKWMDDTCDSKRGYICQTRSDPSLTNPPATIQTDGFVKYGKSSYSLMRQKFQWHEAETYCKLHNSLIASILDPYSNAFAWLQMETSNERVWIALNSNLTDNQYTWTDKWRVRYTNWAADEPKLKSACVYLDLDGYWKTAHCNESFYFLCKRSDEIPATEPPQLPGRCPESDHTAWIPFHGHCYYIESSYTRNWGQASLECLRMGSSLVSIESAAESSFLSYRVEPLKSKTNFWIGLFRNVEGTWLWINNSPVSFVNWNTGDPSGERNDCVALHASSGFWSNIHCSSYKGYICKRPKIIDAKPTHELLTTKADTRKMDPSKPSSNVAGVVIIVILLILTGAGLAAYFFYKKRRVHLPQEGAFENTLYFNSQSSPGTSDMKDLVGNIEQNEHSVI
Assay: cell-based or functional assay

internalization rate in U937 cells relative to imiglucerase (4-MU-glc activity assay): ≤ 2.5 fold
B1: velaglucerase alfa (enzyme, human, UniProt P04062 40-536, looked up)
chain: ARPCIPKSFGYSSVVCVCNATYCDSFDPPTFPALGTFSRYESTRSGRRMELSMGPIQANHTGTGLLLTLQPEQKFQKVKGFGGAMTDAAALNILALSPPAQNLLLKSYFSEEGIGYNIIRVPMASCDFSIRTYTYADTPDDFQLHNFSLPEEDTKLKIPLIHRALQLAQRPVSLLASPWTSPTWLKTNGAVNGKGSLKGQPGDIYHQTWARYFVKFLDAYAEHKLQFWAVTAENEPSAGLLSGYPFQCLGFTPEHQRDFIARDLGPTLANSTHHNVRLLMLDDQRLLLPHWAKVVLTDPEAAKYVHGIAVHWYLDFLAPAKATLGETHRLFPNTMLFASEACVGSKFWEQSVRLGSWDRGMQYSHSIITNLLYHVVGWTDWNLALNPEGGPNWVRNFVDSPIIVDITKDTFYKQPMFYHLGHFSKFIPEGSQRVGLVASQKNDLDAVALMHPDGSAVVVVLNRSSKDVPLTIKDPAVGFLETISPGYSIHTYLWRRQ
modifications: primarily high-mannose type N-glycans (6-9 mannose units per glycan) at Asn19, Asn59, Asn146, Asn270
